Results reported in paper PMC13612217.

Target: S-chain of the optimized human DROP-CAR containing dmLD3 (human)

percent of anti-PSMA DROP-CAR Jurkat cells still bound to a PC3-PIP monolayer at 1,000 pN (z-Movi acoustic force ramp), with venetoclax, partially detached cells counted as bound: 30% | percent of anti-PSMA DROP-CAR Jurkat cells still bound to a PC3-PIP monolayer at 1,000 pN (z-Movi acoustic force ramp), with venetoclax, partially detached cells counted as dissociated: < 10% | percent of anti-PSMA DROP-CAR Jurkat cells still bound to a PC3-PIP monolayer at 1,000 pN (z-Movi acoustic force ramp), without venetoclax, partially detached cells counted as bound: 64% | percent of anti-PSMA DROP-CAR Jurkat cells still bound to a PC3-PIP monolayer at 1,000 pN (z-Movi acoustic force ramp), without venetoclax, partially detached cells counted as dissociated: 30%
Substance: R-domain of the anti-PSMA DROP-CAR (J591 scFv fused to Bcl-2)
